We go through five molecules from patent US20130129719, “HER2 NUCLEIC ACID APTAMERS” (UNIVERSITY OF IOWA RESEARCH FOUNDATION, published 2013).

To fix the notation:
T1: glyoxylase (negative control protein) (Homo sapiens, UniProt Q04760 Q04760:2-184)
T1 sequence: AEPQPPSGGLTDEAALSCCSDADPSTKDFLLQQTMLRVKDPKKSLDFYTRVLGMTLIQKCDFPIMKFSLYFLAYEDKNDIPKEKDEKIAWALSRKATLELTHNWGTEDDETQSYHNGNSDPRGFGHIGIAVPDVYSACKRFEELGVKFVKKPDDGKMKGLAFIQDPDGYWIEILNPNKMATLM

B1: B1 (ssRNA)
RNA: GGGAGGACGAUGCGGUCUGUUGUGCUUGAUAUGCCCCAGACGACUCGCCCGA
B2: C1 (ssRNA)
RNA: GGGAGGACGAUGCGGCUGUCUACCUUCUACUGCCGCAGACGACUCGCCCGA
B3: D1 (ssRNA)
RNA: GGGAGGACGAUGCGGAUGUAUGUUGGGAGCCACGCCAGACGACUCGCCCGA
B4: E1 (ssRNA)
RNA: GGGAGGACGAUGCGGUCCUGUCGUCUGUUCGUCCCCAGACGACUCGCCCGA

HER2 extracellular domain (HER2-ECD), sequence (P06494 23-654, one chain of several): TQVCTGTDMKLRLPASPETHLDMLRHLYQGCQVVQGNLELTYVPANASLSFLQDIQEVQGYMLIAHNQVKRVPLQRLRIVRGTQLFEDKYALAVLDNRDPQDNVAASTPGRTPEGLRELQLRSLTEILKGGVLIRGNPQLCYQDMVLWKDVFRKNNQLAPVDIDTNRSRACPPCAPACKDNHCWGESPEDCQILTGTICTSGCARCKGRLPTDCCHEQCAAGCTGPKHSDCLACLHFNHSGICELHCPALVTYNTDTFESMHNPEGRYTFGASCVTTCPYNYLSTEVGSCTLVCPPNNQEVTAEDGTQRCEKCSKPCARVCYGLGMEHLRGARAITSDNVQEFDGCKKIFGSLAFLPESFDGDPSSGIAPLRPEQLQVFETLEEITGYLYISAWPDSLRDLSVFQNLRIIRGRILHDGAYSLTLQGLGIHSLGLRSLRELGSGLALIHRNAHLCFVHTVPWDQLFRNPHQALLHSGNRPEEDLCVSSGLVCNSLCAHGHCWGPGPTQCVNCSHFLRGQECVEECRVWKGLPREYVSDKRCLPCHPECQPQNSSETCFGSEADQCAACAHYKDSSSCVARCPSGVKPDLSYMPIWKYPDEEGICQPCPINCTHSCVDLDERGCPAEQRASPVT

The first series concerns the target HER2 extracellular domain (HER2-ECD) (Rattus norvegicus, UniProt P06494 P06494:23-654). Put plainly: FP; selection buffer, room temperature 30 min, protein up to 1 uM. The conditions noted are these: label: 5'-FAM. As to the method:
(§1) FIG. 3. Binding of HER2-aptamers to recombinant HER2-ECD protein. RNA aptamers labeled with FAM at the 5′ end were incubated with recombinant rat HER2-ECD protein in increasing concentrations up to 1 μM at room temperature for 30 minutes in 100 μL reaction volumes. A non-target protein (glyoxylase) is used as a negative control in these assays (Control protein). The binding reaction is performed in the buffer in which the selection was performed. Fluorescence polarization (FP) values for each RNA concentration are read using an Analyst HT plate reader by LJL Biosystems. FP is given by P=(V−H)/(V+H), where V is the vertical component of polarized light, and H is the horizontal component of polarized light. Values of polarization range from 0 to 500 mP, with 0 mP being no binding of the RNA and 500 mP representing maximal binding. The curve is fit with a one-site binding model using non-linear regression software. This confirms the binding of the HER2 aptamers to […] HER2 using Fluorescence Polarization. […] This experiment was done several times and was reproducible.
(§2) The inventors next verified that several of the internalizing aptamers were binding specifically to HER2 using fluorescence polarization (FP). This was done by measuring binding of the RNAs to recombinant purified rat HER2-ECD (extra cellular domain) (FIG. 3). […] A control protein (human glyoxylase) was used as a negative control for binding in these studies.
B1: the binding result is “binds”.

GGGAGGACGAUGCGGGACUGUAUGGGGCUCUGUGCAGACGACUCGCCCGA (ssRNA) [A2]: the binding result is “binds”.

On to B2, for which the binding result was “binds”.

For the molecule B3, the binding result was “binds”.

As to B4, the binding result was “binds”.

For another series, the target named is T1, glyoxylase (negative control protein). Put plainly: FP; specificity control, room temperature. The settings on record: tags: His-tag; label: 5'-FAM. As to the method:
as §1, §2
As to B1, the binding result was “no binding”.

For the molecule GGGAGGACGAUGCGGGACUGUAUGGGGCUCUGUGCAGACGACUCGCCCGA (ssRNA) [A2], the binding result is listed as “no binding”.

Regarding B2, the binding result is “no binding”.

Consider B3, for which the binding result was “no binding”.

As for B4, the binding result is given as “no binding”.
